Test results reported in paper PMC4877013.

Columns and labels:
[1] = target: major histocompatibility complex class II of H-2^d (A^d) on macrophages of Balb/c mice (mouse (endogenous in Balb/c peritoneal macrophages)); experiment: flow cytometry on cells; as a1, but L. donovani infected macrophages (I-MΦ) of Balb/c mice
[2] = target: major histocompatibility complex class II of H-2^d (A^d) on macrophages of Balb/c mice (mouse (endogenous in Balb/c peritoneal macrophages))

“LACK_(156-173) peptide (amino acid residues 156–173 of LACK protein, Leishmania homolog of receptors for activated C-kinase)” showed an MFI of LACK (156-173)-A^d at '0' h in I-MΦ against N-MΦ [1] of 30 % less, a rate of decrease of IL-2 production by anti-LACK T cell hybridoma LMR7.5 cocultured with peptide pulsed, fixed I-MΦ (0 to 12 h after the pulse) [2] of 17.1 and a rate of decrease of IL-2 production by anti-LACK T cell hybridoma LMR7.5 cocultured with peptide pulsed, fixed I-MΦ-AL (0 to 12 h after the pulse) [2] of 15.8. It also gave a rate of decrease of IL-2 production by anti-LACK T cell hybridoma LMR7.5 cocultured with peptide pulsed, fixed N-MΦ (0 to 12 h after the pulse) [2] of 1.29.
